Data published in IntAct's records for PubMed 22863753.

B1: NLR family CARD domain-containing protein 3 (Homo sapiens), Q7RTR2 (parent)
chain: MRKQEVRTGREAGQGHGTGSPAEQVKALMDLLAGKGSQGSQAPQALDRTPDAPLGPCSNDSRIQRHRKALLSKVGGGPELGGPWHRLASLLLVEGLTDLQLREHDFTQVEATRGGGHPARTVALDRLFLPLSRVSVPPRVSITIGVAGMGKTTLVRHFVRLWAHGQVGKDFSLVLPLTFRDLNTHEKLCADRLICSVFPHVGEPSLAVAVPARALLILDGLDECRTPLDFSNTVACTDPKKEIPVDHLITNIIRGNLFPEVSIWITSRPSASGQIPGGLVDRMTEIRGFNEEEIKVCLEQMFPEDQALLGWMLSQVQADRALYLMCTVPAFCRLTGMALGHLWRSRTGPQDAELWPPRTLCELYSWYFRMALSGEGQEKGKASPRIEQVAHGGRKMVGTLGRLAFHGLLKKKYVFYEQDMKAFGVDLALLQGAPCSCFLQREETLASSVAYCFTHLSLQEFVAAAYYYGASRRAIFDLFTESGVSWPRLGFLTHFRSAAQRAMQAEDGRLDVFLRFLSGLLSPRVNALLAGSLLAQGEHQAYRTQVAELLQGCLRPDAAVCARAINVLHCLHELQHTELARSVEEAMESGALARLTGPAHRAALAYLLQVSDACAQEANLSLSLSQGVLQSLLPQLLYCRKLRLDTNQFQDPVMELLGSVLSGKDCRIQKISLAENQISNKGAKALARSLLVNRSLTSLDLRGNSIGPQGAKALADALKINRTLTSLSLQGNTVRDDGARSMAEALASNRTLSMLHLQKNSIGPMGAQRMADALKQNRSLKELMFSSNSIGDGGAKALAEALKVNQGLESLDLQSNSISDAGVAALMGALCTNQTLLSLSLRENSISPEGAQAIAHALCANSTLKNLDLTANLLHDQGARAIAVAVRENRTLTSLHLQWNFIQAGAAQALGQALQLNRSLTSLDLQENAIGDDGACAVARALKVNTALTALYLQVASIGASGAQVLGEALAVNRTLEILDLRGNAIGVAGAKALANALKVNSSLRRLNLQENSLGMDGAICIATALSGNHRLQHINLQGNHIGDSGARMISEAIKTNAPTCTVEM
partner: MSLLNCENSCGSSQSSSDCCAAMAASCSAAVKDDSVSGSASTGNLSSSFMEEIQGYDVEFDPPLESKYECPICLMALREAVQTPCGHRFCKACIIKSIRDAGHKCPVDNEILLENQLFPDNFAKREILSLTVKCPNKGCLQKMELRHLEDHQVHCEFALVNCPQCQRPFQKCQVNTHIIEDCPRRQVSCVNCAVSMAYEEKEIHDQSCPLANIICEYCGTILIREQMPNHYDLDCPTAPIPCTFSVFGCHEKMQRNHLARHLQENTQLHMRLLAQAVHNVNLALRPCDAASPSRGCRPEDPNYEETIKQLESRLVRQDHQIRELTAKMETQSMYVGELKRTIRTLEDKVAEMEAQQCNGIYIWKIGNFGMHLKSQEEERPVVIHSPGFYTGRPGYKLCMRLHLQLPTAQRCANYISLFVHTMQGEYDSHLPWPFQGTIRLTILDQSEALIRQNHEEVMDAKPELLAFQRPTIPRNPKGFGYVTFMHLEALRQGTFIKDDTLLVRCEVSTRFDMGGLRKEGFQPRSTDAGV

Variants of: B1
Details: with traf6_mouse Traf6, P70196

| effect of a mutation on the interaction | Variant |
| --- | --- |
| decreasing interaction | S457A;L458A;Q459A;E460A |
